As usually defined, the IC50 is the concentration needed to halve the response being measured. High values mean a need for much substance, low ones inhibition by little substance.

In the assay the target is Cry1Ab receptor proteins in brush border membrane vesicle (BBMV) preparations from the midgut of Heliothis zea larvae. Nature of the assay: homologous competition with 0.25 nM ^125I Cry1Ab on H. zea BBMV (0.10 mg protein/ml).

Regarding “Cry1Ab core toxin (trypsin truncated Cry1Ab)”, the IC50 stood at 2 nM.

Values taken from US20120159674A1.
